Target: fused protein β-gal97S4DhCNP-22R5-3 (human) (UniProt P23582)

## natural V8 protease (Staphylococcus aureus V8 protease) (from UniProt P0C1U8) (enzyme)
  cleavage efficiency (proportion of fused protein cleaved): 60%

Source: US5747321
